Measurements from paper doi:10.1101/2021.05.16.444004 (bioRxiv, 2021).

Biological target: SARS-CoV-2 RBD-SD1 (SARS-CoV-2, Wuhan-Hu-1, UniProt P0DTC2)
Test: BLI

B1: 54042-4 IgG (antibody, V domains shown)
VH: QITLKESGPTLVKPTQTLTLTCTFSGFSLSTIGVGVSWIRQPPGKALDWLALIYWDDDKRYSPSLKSRLTVTMDTSKNQVVLTLTNMDPVDTATYFCAHGLFSSSDWGGLDVWGQGTTVTVSS
VL: DMQMTQSPSSLSASVGDRVTITCRASQSVFTYLNWYQQKPGKAPKLLIYAASRLQSGVPSRFRGSGSGTDFTLTISSLQPEDFATYYCQQSHSTPFIFGPGTKVDIK
Kd: 21.8 nM
